According to PMC2635920 (Nature structural & molecular biology, 2009):
Values belong to the binder of their own block, whether it stands above or below them.

B3: Tip20p, full-length (residues 1-701) (natural protein, S. cerevisiae, UniProt P33891 1-701, looked up)
chain: MNGIDDLLNINDRIKQVQNERNELASKLQNLKQSLASNDTEVALSEVIAQDIIEVGASVEGLEQLRAKYGDLQILNKLEKVAVQQTQMQAGVDKLDSFERQLDELAEQPPDQFTLDDVKALHSKLTSVFATVPQINNIDSQYAAYNKLKSKVTGKYNDVIIQRLATNWSNTFDQKLLEAQWDTQKFASTSVGLVKCLRENSTKLYQLSLLYLPLEEETQNGDSERPLSRSNNNQEPVLWNFKSLANNFNVRFTYHFHATSSSSKIETYFQFLNDYLAENLYKCINIFHDDCNGLTKPVIHEQFINYVLQPIRDKVRSTLFQNDLKTLIVLISQILATDKNLLNSFHYHGLGLVSLISDEVWEKWINYEVEMANRQFINITKNPEDFPKSSQNFVKLINKIYDYLEPFYDLDFDLLVRYKLMTCSLIFMNLTSSYLDYILTVDSLNETRTKEQELYQTMAKLQHVNFVYRKIKSLSSNFIFIQLTDIVNSTESKKYNSLFQNVENDYEKAMSTDMQNSIVHRIQKLLKETLRNYFKISTWSTLEMSVDENIGPSSVPSAELVNSINVLRRLINKLDSMDIPLAISLKVKNELLNVIVNYFTESILKLNKFNQNGLNQFLHDFKSLSSILSLPSHATNYKCMSLHELVKILKLKYDPNNQQFLNPEYIKTGNFTSLKEAYSIKYLKDTKIQDALYRIIYGNIL

Experiments:
[1] = target: B3; test: SEC
[2] = target: T1, Sec39p, full-length (residues 1-709) (S. cerevisiae, UniProt Q12745 1-709); test: SEC
T1 sequence (looked up): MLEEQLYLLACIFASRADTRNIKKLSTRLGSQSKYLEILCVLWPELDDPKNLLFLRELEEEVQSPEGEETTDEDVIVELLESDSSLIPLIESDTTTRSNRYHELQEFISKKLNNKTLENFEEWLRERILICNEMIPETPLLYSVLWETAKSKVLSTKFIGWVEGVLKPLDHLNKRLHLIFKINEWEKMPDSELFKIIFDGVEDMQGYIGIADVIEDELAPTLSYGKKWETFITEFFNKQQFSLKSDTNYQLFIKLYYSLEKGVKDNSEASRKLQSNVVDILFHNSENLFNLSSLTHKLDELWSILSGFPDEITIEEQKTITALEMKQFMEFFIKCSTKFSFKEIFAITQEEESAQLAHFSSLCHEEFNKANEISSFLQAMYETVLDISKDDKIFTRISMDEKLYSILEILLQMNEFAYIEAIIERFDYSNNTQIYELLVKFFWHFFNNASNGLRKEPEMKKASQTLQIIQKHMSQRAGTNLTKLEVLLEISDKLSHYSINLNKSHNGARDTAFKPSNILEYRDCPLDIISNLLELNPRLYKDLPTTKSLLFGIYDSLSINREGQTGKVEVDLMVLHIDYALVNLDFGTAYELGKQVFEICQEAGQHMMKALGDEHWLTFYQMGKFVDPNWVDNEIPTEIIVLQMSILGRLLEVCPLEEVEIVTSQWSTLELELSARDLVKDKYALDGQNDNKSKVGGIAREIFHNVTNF

[3] = target: T2, Dsl1p-Sec39p complex (S. cerevisiae, UniProt P53847 1-754; Q12745 1-709); test: SEC
T2 sequence (looked up) 1: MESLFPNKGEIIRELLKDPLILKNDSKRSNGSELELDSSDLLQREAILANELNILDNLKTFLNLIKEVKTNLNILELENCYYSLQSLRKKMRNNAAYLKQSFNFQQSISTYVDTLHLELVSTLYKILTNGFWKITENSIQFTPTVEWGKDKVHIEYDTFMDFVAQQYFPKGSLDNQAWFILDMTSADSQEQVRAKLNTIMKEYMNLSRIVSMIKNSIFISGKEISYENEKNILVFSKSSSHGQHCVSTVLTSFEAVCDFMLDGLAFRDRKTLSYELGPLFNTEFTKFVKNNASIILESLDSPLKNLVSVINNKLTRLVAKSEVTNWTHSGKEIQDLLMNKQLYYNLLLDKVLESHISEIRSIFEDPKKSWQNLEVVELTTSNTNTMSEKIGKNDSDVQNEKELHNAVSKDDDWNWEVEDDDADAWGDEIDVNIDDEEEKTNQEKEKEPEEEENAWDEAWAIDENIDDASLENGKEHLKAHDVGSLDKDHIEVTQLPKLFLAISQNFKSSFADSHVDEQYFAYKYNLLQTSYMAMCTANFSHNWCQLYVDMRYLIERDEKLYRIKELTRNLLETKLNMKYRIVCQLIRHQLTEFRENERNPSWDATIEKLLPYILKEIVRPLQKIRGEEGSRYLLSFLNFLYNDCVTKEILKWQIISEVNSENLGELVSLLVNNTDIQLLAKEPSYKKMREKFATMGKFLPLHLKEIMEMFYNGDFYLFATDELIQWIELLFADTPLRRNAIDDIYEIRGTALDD
T2 sequence (looked up) 2: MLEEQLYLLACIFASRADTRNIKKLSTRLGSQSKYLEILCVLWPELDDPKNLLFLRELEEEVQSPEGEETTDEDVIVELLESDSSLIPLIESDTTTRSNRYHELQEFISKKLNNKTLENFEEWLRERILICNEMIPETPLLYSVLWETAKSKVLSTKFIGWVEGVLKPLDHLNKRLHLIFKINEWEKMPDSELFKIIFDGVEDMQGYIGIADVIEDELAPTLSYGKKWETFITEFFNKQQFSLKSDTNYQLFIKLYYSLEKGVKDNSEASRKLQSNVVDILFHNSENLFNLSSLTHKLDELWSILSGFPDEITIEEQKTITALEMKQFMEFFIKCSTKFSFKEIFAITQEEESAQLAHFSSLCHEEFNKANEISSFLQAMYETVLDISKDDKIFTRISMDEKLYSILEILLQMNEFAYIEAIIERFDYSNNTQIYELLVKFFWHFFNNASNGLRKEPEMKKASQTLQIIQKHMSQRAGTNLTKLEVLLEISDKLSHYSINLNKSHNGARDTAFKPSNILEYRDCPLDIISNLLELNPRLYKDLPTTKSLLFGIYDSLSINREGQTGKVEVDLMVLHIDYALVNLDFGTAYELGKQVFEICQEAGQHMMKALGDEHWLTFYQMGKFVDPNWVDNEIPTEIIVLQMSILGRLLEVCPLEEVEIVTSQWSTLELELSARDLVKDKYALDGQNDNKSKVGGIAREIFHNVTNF

[4] = target: T3, Dsl1p, full-length (residues 1-754) (S. cerevisiae, UniProt P53847 1-754); test: SEC
T3 sequence (looked up): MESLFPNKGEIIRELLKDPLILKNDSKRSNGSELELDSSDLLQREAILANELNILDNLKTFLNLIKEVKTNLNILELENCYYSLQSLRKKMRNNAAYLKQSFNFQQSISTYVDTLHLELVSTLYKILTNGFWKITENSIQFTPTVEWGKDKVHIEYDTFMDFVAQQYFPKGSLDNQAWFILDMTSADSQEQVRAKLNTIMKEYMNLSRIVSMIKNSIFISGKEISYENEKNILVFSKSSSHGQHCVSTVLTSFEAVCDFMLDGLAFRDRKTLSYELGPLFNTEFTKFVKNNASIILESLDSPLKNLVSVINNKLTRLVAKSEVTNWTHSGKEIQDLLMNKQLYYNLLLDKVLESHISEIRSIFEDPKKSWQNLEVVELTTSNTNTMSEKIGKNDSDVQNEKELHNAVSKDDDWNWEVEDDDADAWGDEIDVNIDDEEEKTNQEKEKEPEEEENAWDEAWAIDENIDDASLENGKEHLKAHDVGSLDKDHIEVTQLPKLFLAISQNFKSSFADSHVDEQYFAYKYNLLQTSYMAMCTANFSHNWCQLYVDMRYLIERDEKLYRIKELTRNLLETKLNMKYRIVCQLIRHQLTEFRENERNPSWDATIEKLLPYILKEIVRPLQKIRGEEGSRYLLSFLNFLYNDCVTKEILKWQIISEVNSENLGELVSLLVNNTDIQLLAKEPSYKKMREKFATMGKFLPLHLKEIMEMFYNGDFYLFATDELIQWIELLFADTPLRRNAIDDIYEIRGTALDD

[5] = target: T4, Dsl1p residues 37-339, as the C-terminal part of the Tip20p-Dsl1p fusion protein (S. cerevisiae, UniProt P53847 37-339); test: crystal structure
T4 sequence (looked up): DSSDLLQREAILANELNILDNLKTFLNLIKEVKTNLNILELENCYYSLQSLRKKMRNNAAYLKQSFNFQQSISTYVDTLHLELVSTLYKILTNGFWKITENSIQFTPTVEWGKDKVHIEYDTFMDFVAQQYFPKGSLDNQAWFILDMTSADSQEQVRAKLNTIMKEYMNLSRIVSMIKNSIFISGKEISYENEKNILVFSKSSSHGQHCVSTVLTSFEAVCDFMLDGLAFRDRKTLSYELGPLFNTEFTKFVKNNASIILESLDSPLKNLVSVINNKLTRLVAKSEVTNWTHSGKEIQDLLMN

- binding result [2]: binds
B2: Dsl1ΔN1 (Dsl1p residues 340-754) (domain or fragment, S. cerevisiae, UniProt P53847 340-754, looked up)
chain: KQLYYNLLLDKVLESHISEIRSIFEDPKKSWQNLEVVELTTSNTNTMSEKIGKNDSDVQNEKELHNAVSKDDDWNWEVEDDDADAWGDEIDVNIDDEEEKTNQEKEKEPEEEENAWDEAWAIDENIDDASLENGKEHLKAHDVGSLDKDHIEVTQLPKLFLAISQNFKSSFADSHVDEQYFAYKYNLLQTSYMAMCTANFSHNWCQLYVDMRYLIERDEKLYRIKELTRNLLETKLNMKYRIVCQLIRHQLTEFRENERNPSWDATIEKLLPYILKEIVRPLQKIRGEEGSRYLLSFLNFLYNDCVTKEILKWQIISEVNSENLGELVSLLVNNTDIQLLAKEPSYKKMREKFATMGKFLPLHLKEIMEMFYNGDFYLFATDELIQWIELLFADTPLRRNAIDDIYEIRGTALDD

- binding result [5]: binds
B4: Tip20p residues 1-40, as the N-terminal part of the Tip20p-Dsl1p fusion protein (domain or fragment, S. cerevisiae, UniProt P33891 1-40, looked up)
chain: MNGIDDLLNINDRIKQVQNERNELASKLQNLKQSLASNDT

- binding result [2]: binds
B5: Dsl1ΔN (Dsl1p residues 57-754) (domain or fragment, S. cerevisiae, UniProt P53847 57-754, looked up)
chain: NLKTFLNLIKEVKTNLNILELENCYYSLQSLRKKMRNNAAYLKQSFNFQQSISTYVDTLHLELVSTLYKILTNGFWKITENSIQFTPTVEWGKDKVHIEYDTFMDFVAQQYFPKGSLDNQAWFILDMTSADSQEQVRAKLNTIMKEYMNLSRIVSMIKNSIFISGKEISYENEKNILVFSKSSSHGQHCVSTVLTSFEAVCDFMLDGLAFRDRKTLSYELGPLFNTEFTKFVKNNASIILESLDSPLKNLVSVINNKLTRLVAKSEVTNWTHSGKEIQDLLMNKQLYYNLLLDKVLESHISEIRSIFEDPKKSWQNLEVVELTTSNTNTMSEKIGKNDSDVQNEKELHNAVSKDDDWNWEVEDDDADAWGDEIDVNIDDEEEKTNQEKEKEPEEEENAWDEAWAIDENIDDASLENGKEHLKAHDVGSLDKDHIEVTQLPKLFLAISQNFKSSFADSHVDEQYFAYKYNLLQTSYMAMCTANFSHNWCQLYVDMRYLIERDEKLYRIKELTRNLLETKLNMKYRIVCQLIRHQLTEFRENERNPSWDATIEKLLPYILKEIVRPLQKIRGEEGSRYLLSFLNFLYNDCVTKEILKWQIISEVNSENLGELVSLLVNNTDIQLLAKEPSYKKMREKFATMGKFLPLHLKEIMEMFYNGDFYLFATDELIQWIELLFADTPLRRNAIDDIYEIRGTALDD

More lines, now with the values behind:

B1: Dsl1ΔC (L41E) (domain or fragment, S. cerevisiae, UniProt P53847 1-361, looked up)
chain: MESLFPNKGEIIRELLKDPLILKNDSKRSNGSELELDSSDELQREAILANELNILDNLKTFLNLIKEVKTNLNILELENCYYSLQSLRKKMRNNAAYLKQSFNFQQSISTYVDTLHLELVSTLYKILTNGFWKITENSIQFTPTVEWGKDKVHIEYDTFMDFVAQQYFPKGSLDNQAWFILDMTSADSQEQVRAKLNTIMKEYMNLSRIVSMIKNSIFISGKEISYENEKNILVFSKSSSHGQHCVSTVLTSFEAVCDFMLDGLAFRDRKTLSYELGPLFNTEFTKFVKNNASIILESLDSPLKNLVSVINNKLTRLVAKSEVTNWTHSGKEIQDLLMNKQLYYNLLLDKVLESHISEIRS
- binding result [1]: binds

Binder: B3
- binding result [3]: binds
- binding result [4]: binds
